Assay results taken from article PMC9918506, “Structural insights into pathogenic mechanism of hypohidrotic ectodermal dysplasia caused by ectodysplasin A variants” (Nature Communications, 2023).

T1: EDA·A1 TNF homology domain (EDA·A1THD, residues 233-391) (human, UniProt Q92838 233-391)
T1 construct: ectodysplasin A, splice form EDA·A1, human, TNF homology domain, residues 233-391; MBP removed with 3C protease; codon-optimised cDNA in pMAL-c2x; Trimer in the crystal structure; also called EDATHD; ectodysplasin A; source: E. coli BL21 CodonPlus (DE3), purified (amylose beads, Superdex 200, Mono-S, Superdex 200 increase); not shown: MBP, N-terminal, cleaved
T1 sequence (looked up): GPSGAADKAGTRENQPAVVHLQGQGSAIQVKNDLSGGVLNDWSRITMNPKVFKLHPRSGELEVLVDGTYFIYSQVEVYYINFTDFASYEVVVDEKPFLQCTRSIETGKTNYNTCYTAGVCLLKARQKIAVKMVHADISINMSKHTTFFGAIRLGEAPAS

B1: EDAR cysteine-rich domains (EDAR_(CRDS), residues 30–150), MBP tag removed (domain or fragment, human)
chain: GGSGGSGGSGGSNCGENEYYNQTTGLCQECPPCGPGEEPYLSCGYGTKDEDYGCVPCPAEKFSKGGYQICRRHKDCEGFFRATVLTPGDMENDAECGPCLPGYYMLENRPRNIYGMVCYSCLLAPPNTKECVG
notes: EDAR (ectodysplasin A receptor), human, cysteine-rich domains CRD1-CRD3, residues 30-150; Construct: EDAR signal peptide (residues 1-28), MBP, 3C site, linker, EDAR 30-150; That the linker stays on the protein after 3C cleavage follows only from the order in which the methods list the elements; also called ectodomains of EDAR; source: Hi5 insect cells (baculovirus), secreted, purified (amylose, …)
B2: EDAR cysteine-rich domains (EDAR_(CRDS), residues 30-150) (domain or fragment, human, UniProt Q9UNE0 30-150, looked up)
chain: NCGENEYYNQTTGLCQECPPCGPGEEPYLSCGYGTKDEDYGCVPCPAEKFSKGGYQICRRHKDCEGFFRATVLTPGDMENDAECGPCLPGYYMLENRPRNIYGMVCYSCLLAPPNTKECVG
notes: EDAR, human, N-terminal cysteine-rich domains, residues 30-150; MBP removed with 3C protease; also called EDAR ectodomain; source: Hi5 insect cells (baculovirus), secreted, purified (amylose beads, Mono-Q, Superdex 200); not shown: MBP, N-terminal, cleaved
B3: EDA·A1 TNF homology domain (EDA·A1THD, residues 233–391), wild type (domain or fragment, human, UniProt Q92838 233-391, looked up)
chain: T1 sequence (looked up)
notes: ectodysplasin A, splice form EDA·A1 (with Val307-Glu308), human, THD residues 233-391; Optimized cDNA in pMAL-c2x; MBP removed with 3C protease; Trimer in the crystal structure; also called WT EDA·A1THD; ectodysplasin A THD; source: E. coli BL21 CodonPlus (DE3), purified (amylose, Superdex 200, 3C cleavage, Mono-S, Superdex 200); not shown: MBP, N-terminal, cleaved

What was measured:
[1] = target: EDA·A1THD (residues 233–391) R276C (human, UniProt Q92838 233-391, R276C); test: SPR
[2] = target: B3; test: SPR; WT and mutant EDA·A1THD immobilised on CM5 chips, EDAR_(CRDS) serially diluted and injected; Biacore 8K; 10 mM HEPES pH 7.5, 150 mM NaCl, 3 mM EDTA, 25 °C; steady-state analysis at equilibrium; conditions: both partners purified
[3] = target: T1, EDA·A1 TNF homology domain (EDA·A1THD, …); test: SEC; gel filtration on a Superdex 200 analytical column, fractions on SDS-PAGE; EDA·A1THD alone, EDAR_(CRDS) alone and the mixture; conditions: both partners purified
[4] = target: the molecule itself; test: crystal structure; EDA·A1THD and EDAR_(CRDS) mixed at a molar ratio of 1:1; crystals in 25% PEG-6000, 0.1 M BICINE pH 9.0, 4 °C; 2.8 Å

## B1
[1]
  Kd: 35.9 nM
[2]
  Kd: 18.5 nM

## B2
[3]
  binding result: binds

## B3
[4]
  stoichiometry N: 3
